Usually koff stands for the rate constant with which the complex falls apart. Broadly, the Kd is a measure of binding affinity in units of concentration.

Common to all, as to test: BLI; Octet RED96; client biotinylated and loaded on streptavidin sensors; Spy or Spy variant in solution at 0.25, 0.5, 1, 1.5 and 2 μM; 40 mM HEPES, 150 mM NaCl, pH 7.5; Kd calculated as koff/kon
Conditions in all cases: both partners purified

For test [1], the target named is T1, Spy_(29-124) H96D (UniProt P77754 52-147, H96D).
T1 construct: source: E. coli BL21 (DE3), purified (Ni-NTA, cation exchange, SEC); not shown: His6, N-terminal, cleaved; SUMO, N-terminal, cleaved
T1 sequence (looked up): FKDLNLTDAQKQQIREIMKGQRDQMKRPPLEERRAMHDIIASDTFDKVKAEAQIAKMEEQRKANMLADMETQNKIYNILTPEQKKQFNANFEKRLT

Test [2] addresses T2, Spy_(29-124) K54D R55D (UniProt P77754 52-147, K54D | R55D).
T2 construct: source: E. coli BL21 (DE3), purified (Ni-NTA, cation exchange, SEC); not shown: His6, N-terminal, cleaved; SUMO, N-terminal, cleaved
T2 sequence (looked up): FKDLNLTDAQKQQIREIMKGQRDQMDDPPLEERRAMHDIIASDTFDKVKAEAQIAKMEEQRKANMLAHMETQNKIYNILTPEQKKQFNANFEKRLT

The target in test [3] is T3, Spy_(29-124) K75D (UniProt P77754 52-147, K75D).
T3 construct: source: E. coli BL21 (DE3), purified (Ni-NTA, cation exchange, SEC); not shown: His6, N-terminal, cleaved; SUMO, N-terminal, cleaved
T3 sequence (looked up): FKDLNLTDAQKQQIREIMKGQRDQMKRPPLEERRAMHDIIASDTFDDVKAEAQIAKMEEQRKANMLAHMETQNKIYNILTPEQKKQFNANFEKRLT

In test [4] the target is T4, Spy_(29-124) R50D (UniProt P77754 52-147, R50D).
T4 construct: source: E. coli BL21 (DE3), purified (Ni-NTA, cation exchange, SEC); not shown: His6, N-terminal, cleaved; SUMO, N-terminal, cleaved
T4 sequence (looked up): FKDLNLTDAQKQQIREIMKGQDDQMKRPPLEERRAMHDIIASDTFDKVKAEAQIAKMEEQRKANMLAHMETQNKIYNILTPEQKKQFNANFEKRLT

For test [5], the target named is T5, Spy_(29-124) R43D (UniProt P77754 52-147, R43D).
T5 construct: source: E. coli BL21 (DE3), purified (Ni-NTA, cation exchange, SEC); not shown: His6, N-terminal, cleaved; SUMO, N-terminal, cleaved
T5 sequence (looked up): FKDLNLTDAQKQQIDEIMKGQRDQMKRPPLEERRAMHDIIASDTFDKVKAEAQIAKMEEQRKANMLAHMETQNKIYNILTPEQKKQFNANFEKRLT

For test [6], the target named is T1, Spy_(29-124) H96D. The source holds these as a separate data set.
Another test concerns the target T6, Spy_(29-124) R89D (UniProt P77754 52-147, R89D).
T6 construct: source: E. coli BL21 (DE3), purified (Ni-NTA, cation exchange, SEC); not shown: His6, N-terminal, cleaved; SUMO, N-terminal, cleaved
T6 sequence (looked up): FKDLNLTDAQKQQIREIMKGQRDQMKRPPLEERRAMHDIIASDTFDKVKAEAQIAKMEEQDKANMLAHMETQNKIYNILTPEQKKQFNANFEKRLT

Test [7] addresses T2, Spy_(29-124) K54D R55D. This is another data set of the same source.
For test [8], the target named is T3, Spy_(29-124) K75D. The source holds these as a separate data set.
Test [9] deals with T4, Spy_(29-124) R50D. This is another data set of the same source.
The next test addresses T7, Spy_(29-124) R61D R62D (UniProt P77754 52-147, R61D | R62D).
T7 construct: source: E. coli BL21 (DE3), purified (Ni-NTA, cation exchange, SEC); not shown: His6, N-terminal, cleaved; SUMO, N-terminal, cleaved
T7 sequence (looked up): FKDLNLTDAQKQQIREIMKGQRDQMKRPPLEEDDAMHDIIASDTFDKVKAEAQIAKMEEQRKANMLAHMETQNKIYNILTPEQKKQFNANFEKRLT

Test [10] has as its target T5, Spy_(29-124) R43D. The source holds these as a separate data set.

B1: Im7 H40W L53A I54A (natural protein)
chain: MELKNSISDYTEAEFVQLLKEIEKENVAATDDVLDVLLEWFVKITEHPDGTDAAYYPSDNRDDSPEGIVKEIKEWRAANGKPGFKQG
modifications: biotin (EZ-link NHS-biotin, 1:1 molar ratio of biotin to protein)
notes: Im7 (colicin E7 immunity protein) with H40W L53A I54A; Spy was made with an N-terminal His6-SUMO tag that was cleaved; also called Im7AAW; partially folded client; source: purified by a similar procedure to Spy
With B1, the koff with Spy_(29-124) H96D [1] was 0.234 s⁻¹; with Spy_(29-124) K54D R55D [2], 0.239 s⁻¹; with Spy_(29-124) K75D [3], 0.0712 s⁻¹; in the test with Spy_(29-124) R50D [4] it was 0.477 s⁻¹; in the test with Spy_(29-124) R43D [5], 0.601 s⁻¹. Also, the Kd with Spy_(29-124) H96D [6] was 1260 nM; with Spy_(29-124) R89D, 2610 nM; with Spy_(29-124) K54D R55D [7] it was 1900 nM; with Spy_(29-124) K75D [8], 456 nM; with Spy_(29-124) R50D [9], 2680 nM; with Spy_(29-124) R61D R62D, 3.54 µM. Further, the Kd with Spy_(29-124) R43D [10] was 3.07 µM.

The values above are taken from PMC9122904, “Insights into the client protein release mechanism of the ATP-independent chaperone Spy” (Nature Communications, 2022).
